Measured values as given in article doi:10.1101/2021.02.17.431492 (bioRxiv, 2021).

Columns and labels:
[1] = target: SARS-CoV-2 RBD sortase A conjugated nanoparticle (RBD-scNP) (SARS-CoV-2, Wuhan strain (RBD moiety), UniProt P0DTC2); assay: BLI
[2] = target: monomeric SARS-CoV-2 receptor binding domain (RBD) (SARS-CoV-2, UniProt P0DTC2); assay: SPR

| Binder | binding result [1] | Kd [2] [nM] |
| --- | --- | --- |
| DH1041 (ACE2 binding site-targeting RBD neutralizing antibody) (antibody, V domains shown) VH: EVQLVESGGGLVQPGGSLRLSCAASGVTFSSYWMSWVRQAPGKGLEWVANIRQDGSEKYSVDSVKGRFTISRDNAKNSLYLQMNSLRAEDTAVYYCARARRADNSGYYGFHFDCWGQGTLVTVSS VL: QSVLTQPPSVSGAPGQRVTISCTGSSSNIGAGYDVHWYQQLPGTAPKLLIYGNNNRPSGVPDRFSDSKSGTSASLAITRLQAEDEADYYCQSYDSSLSGWVFGGGTKLTVL | binds |  |
| DH1047 antigen binding fragment (Fab) (Fab, V domains shown) VH: QVQLVQSGAEVKKPGASVQVSCQASANTFTNHYIHWVRQAPGQGLEWMGIIYPTGGNTIYAQGFQGRVTMTRDTSLNTIYLELSSLRSEDTAVYYCARDVRVDDSWSGYDLLSGGTYFDYWGQGTLVTVSS VL: not shown |  | < 0.02 |
